Experimental data reported in US20240109962A1 (SPARX BIOSCIENCE, published 2024).

B1: Antibody 13C4 (antibody, V domains shown)
VH: QIHLVQSGPELKKPGETVKISCKASGYTFTNYGMNWVKQAPGKALKWMGWMNTYIGEPTYADDFKGRFAFSLETSASTAYLQINNLKNEDMATYFCARRGDYASYYFDYWGQGTTLTVSS
VL: DIVLTQSPATLSVTPGDSVSLSCRASQNINNNLHWYHQKSHESPRLLIKYASQSISGIPSRVSGSGSGTDFTLSIVTVETEDFGMFFCQQSNSWPHTFGGGTKLEIR
notes: Mouse hybridoma mAb purified from ascites
B2: chimeric 9B6 (antibody, V domains shown)
VH: DVQLVESGGGLVQPGWSRILSCAASGFTFSNFGMHWVRQAPEKGLEWVAYISSGSGTIYYSDTVRGRFTISRDNPKNTLFLLMTSLRSEDTAMYYCTRSDYDGDWFFDVWGAGTTVTVSS
VL: DIVMTQSHRFLSTSVGDRVTITCKASQDVTTAVAWCQQKPGQSPKLLIYSASFRYTGVPDRFTGSGSGTDFTFTINNVQAEDLALYYCQQHFTTPLTFGAGTKLELK
B3: Antibody 2E1_FD4 (antibody, V domains shown)
VH: EVQLVESGGGLVQPGGSLRLSCAVSGYSITSGYYWNWIRQAPGKGLEWVAYISYDGNPNYNPSLKNRFTISRDTSKNTFYLQMNSLRAEDTAVYYCAREESTMITTAWFAYWGQGTLVTVSS
VL: DIQMTQSPSSLSASVGDRVTITCRASENIYSNLAWYQQKPGKAPKLLIYGATNLASGVPSRFSGSGSGTDYTLTISSLQPEDFATYYCQHFWDTPYTFGQGTKVEIK
B4: Antibody 2E1_FF3 (antibody, V domains shown)
VH: EVQLVESGGGLVQPGGSLRLSCAVSGYSITSGYYWNWIRQAPGKGLEWVAYISYDGNNSYNPSLKNRFTISRDTSKNTFYLQMNSLRAEDTAVYYCAREESTMITTAWFAYWGQGTLVTVSS
VL: DIQMTQSPSSLSASVGDRVTITCRASENIYSNLAWYQQKPGKAPKLLIYGATNLASGVPSRFSGSGSGTDYTLTISSLQPEDFATYYCQHFWDTPYTFGQGTKVEIK
B5: Antibody 2E1_GG1 (antibody, V domains shown)
VH: EVQLVESGGGLVQPGGSLRLSCAVSGYSITSGYAWNWIRQAPGKGLEWVAYISYDGNNNYNPSLKNRFTISRDTSKNTFYLQMNSLRAEDTAVYYCAREESTMITTAWFAYWGQGTLVTVSS
VL: DIQMTQSPSSLSASVGDRVTITCRASENIYSNLAWYQQKPGKAPKLLIYGATNLASGVPSRFSGSGSGTDYTLTISSLQPEDFATYYCQHFWDTPYTFGQGTKVEIK
B6: Antibody 2E1_GC8 (antibody, V domains shown)
VH: EVQLVESGGGLVQPGGSLRLSCAVSGYSITSGYYWWWIRQAPGKGLEWVAYISYDGNNNYNPSLKNRFTISRDTSKNTFYLQMNSLRAEDTAVYYCAREESTMITTAWFAYWGQGTLVTVSS
VL: DIQMTQSPSSLSASVGDRVTITCRASENIYSNQAWYQQKPGKAPKLLIYGATNRASGVPSRFSGSGSGTDYTLTISSLQPEDFATYYCQHFWDTPYTFGQGTKVEIK
B7: Antibody 2E1_FG2 (antibody, V domains shown)
VH: EVQLVESGGGLVQPGGSLRLSCAVSGYSITSGYYWNWIRQAPGKGLEWVAYISYDGNTNYNPSLKNRFTISRDTSKNTFYLQMNSLRAEDTAVYYCAREESTMITTAWFAYWGQGTLVTVSS
VL: DIQMTQSPSSLSASVGDRVTITCRASENIYSNLAWYQQKPGKAPKLLIYGATNLASGVPSRFSGSGSGTDYTLTISSLQPEDFATYYCQHFWDTPYVFGQGTKVEIK
B8: Antibody 2E1_GH3 (antibody, V domains shown)
VH: EVQLVESGGGLVQPGGSLRLSCAVSGYSITSGYYWNWIRQAPGKGLEWVAYISYDGNNNYNPSLKNRFTISRDTSKNTFYLQMNSLRAEDTAVYYCAREESTMITTAWFAYWGQGTLVTVSS
VL: DIQMTQSPSSLSASVGDRVTITCRASENIYSNLAWYQQKPGKAPKLLIYGATNLSSGVPSRFSGSGSGTDYTLTISSLQPEDFATYYCQHFWDTPYTFGQGTKVEIK
B9: Antibody 2E1_GH11 (antibody, V domains shown)
VH: EVQLVESGGGLVQPGGSLRLSCAVSGYSITSGYYWWWIRQAPGKGLEWVAYISYDGNNNYNPSLKNRFTISRDTSKNTFYLQMNSLRAEDTAVYYCAREESTMITTAWFAYWGQGTLVTVSS
VL: DIQMTQSPSSLSASVGDRVTITCNASENIYSNLAWYQQKPGKAPKLLIYGATNLASGVPSRFSGSGSGTDYTLTISSLQPEDFATYYCQHFWDTPYTFGQGTKVEIK
B10: Antibody 2E1_GA4 (antibody, V domains shown)
VH: EVQLVESGGGLVQPGGSLRLSCAVSGYSITSGYAWNWIRQAPGKGLEWVAYISYDGNNNYNPSLKNRFTISRDTSKNTFYLQMNSLRAEDTAVYYCAREESTMITTAWFAYWGQGTLVTVSS
VL: DIQMTQSPSSLSASVGDRVTITCVASENIYSNLAWYQQKPGKAPKLLIYGATNLASGVPSRFSGSGSGTDYTLTISSLQPEDFATYYCQHFWDTPYTFGQGTKVEIK
B11: Antibody 2E1_GA1 (antibody, V domains shown)
VH: EVQLVESGGGLVQPGGSLRLSCAVSGYSITSGYYWWWIRQAPGKGLEWVAYISYDGNNNYNPSLKNRFTISRDTSKNTFYLQMNSLRAEDTAVYYCAREESTMITTAWFAYWGQGTLVTVSS
VL: DIQMTQSPSSLSASVGDRVTITCRASENIYSNLAWYQQKPGKAPKLLIYGATNLASGVPSRFSGSGSGTDYTLTISSLQPEDFATYYCQHFWDTPYTFGQGTKVEIK
B12: Antibody 2E1_GB7 (antibody, V domains shown)
VH: EVQLVESGGGLVQPGGSLRLSCAVSGYSITSGYYWWWIRQAPGKGLEWVAYISYDGNNNYNPSLKNRFTISRDTSKNTFYLQMNSLRAEDTAVYYCAREESTMITTAWFAYWGQGTLVTVSS
VL: DIQMTQSPSSLSASVGDRVTITCLASENIYSNLAWYQQKPGKAPKLLIYGATNLASGVPSRFSGSGSGTDYTLTISSLQPEDFATYYCQHFWDTPYTFGQGTKVEIK
B13: Antibody 2E1_GB8 (antibody, V domains shown)
VH: EVQLVESGGGLVQPGGSLRLSCAVSGYSITSGYYWWWIRQAPGKGLEWVAYISYDGNNNYNPSLKNRFTISRDTSKNTFYLQMNSLRAEDTAVYYCAREESTMITTAWFAYWGQGTLVTVSS
VL: DIQMTQSPSSLSASVGDRVTITCSASENIYSNLAWYQQKPGKAPKLLIYGATNLASGVPSRFSGSGSGTDYTLTISSLQPEDFATYYCQHFWDTPYTFGQGTKVEIK
B14: Antibody 2E1_GH4 (antibody, V domains shown)
VH: EVQLVESGGGLVQPGGSLRLSCAVSGYSITSGYYWWWIRQAPGKGLEWVAYISYDGNNNYNPSLKNRFTISRDTSKNTFYLQMNSLRAEDTAVYYCAREESTMITTAWFAYWGQGTLVTVSS
VL: DIQMTQSPSSLSASVGDRVTITCRASENIYSNLAWYQQKPGKAPKLLIYGATNFASGVPSRFSGSGSGTDYTLTISSLQPEDFATYYCQHFWDTPYTFGQGTKVEIK
B15: Antibody 2E1_GF8 (antibody, V domains shown)
VH: EVQLVESGGGLVQPGGSLRLSCAVSGYSITSGYYWWWIRQAPGKGLEWVAYISYDGNNNYNPSLKNRFTISRDTSKNTFYLQMNSLRAEDTAVYYCAREESTMITTAWFAYWGQGTLVTVSS
VL: DIQMTQSPSSLSASVGDRVTITCRGSENIYSNLAWYQQKPGKAPKLLIYGATNLASGVPSRFSGSGSGTDYTLTISSLQPEDFATYYCQHFWDTPYTFGQGTKVEIK
B16: Antibody 2E1_GE6 (antibody, V domains shown)
VH: EVQLVESGGGLVQPGGSLRLSCAVSGYSITSGYYWWWIRQAPGKGLEWVAYISYDGNNNYNPSLKNRFTISRDTSKNTFYLQMNSLRAEDTAVYYCAREESTMITTAWFAYWGQGTLVTVSS
VL: DIQMTQSPSSLSASVGDRVTITCRASENIYSNNAWYQQKPGKAPKLLIYGATYLASGVPSRFSGSGSGTDYTLTISSLQPEDFATYYCQHFWDTPYTFGQGTKVEIK
B17: Antibody 2E1_FE1 (antibody, V domains shown)
VH: EVQLVESGGGLVQPGGSLRLSCAVSGYSITSGYYWNWIRQAPGKGLEWVAYISYDGNMNYNPSLKNRFTISRDTSKNTFYLQMNSLRAEDTAVYYCAREESTMITTAWFAYWGQGTLVTVSS
VL: DIQMTQSPSSLSASVGDRVTITCRASENIYSNLAWYQQKPGKAPKLLIYGATNLASGVPSRFSGSGSGTDYTLTISSLQPEDFATYYCQHFWDTPYTFGQGTKVEIK
B18: Antibody 2E1_FG4 (antibody, V domains shown)
VH: EVQLVESGGGLVQPGGSLRLSCAVSGYSITSGYYWNWIRQAPGKGLEWVAYISYDGNVNYNPSLKNRFTISRDTSKNTFYLQMNSLRAEDTAVYYCAREESTMITTAWFAYWGQGTLVTVSS
VL: DIQMTQSPSSLSASVGDRVTITCRASENIYSNLAWYQQKPGKAPKLLIYGATNLASGVPSRFSGSGSGTDYTLTISSLQPEDFATYYCQHFWDTPYIFGQGTKVEIK

Experiments:
[1] = biological target: LILRB2 antigen of the ELISA of Table 5 (format not specified) (UniProt Q8N423 22-460, limits assumed); assay: ELISA, antibody titration
[2] = biological target: T1, human LILRB2 expressed on cells (293T-LILRB2, CHO-K1-LILRB2) (human, UniProt Q8N423 22-597); assay: flow cytometry, blockade of His-tagged HLA-G tetramer binding to 293T-LILRB2 cells; fit table under the graph
T1 construct: whole, on cells; the cell line is named under assay; also called HEK293T-LILRB2
Procedure: Serial diluted humanized LILRB2 antibodies were then added to the mixture and incubated at room temperature for another 45 minutes. The binding of HLA-G/LILRB2 was detected afterwards using a secondary PE-labeled anti-His tag antibody via flow cytometry.

[3] = biological target: T1, human LILRB2 expressed on cells …; assay: flow cytometry, 293T-LILRB2 cells
Excerpt: The fluorescent signals were detected by flow cytometry.

[4] = biological target: T2, recombinant human LILRB2 protein (human, UniProt Q8N423 22-460, limits assumed); assay: ELISA, coated recombinant human LILRB2; parameters: unit not given here
T2 construct: also called recombinant LILRB2 protein
Procedure: This affinity maturation library was screened against human LILRB2 to identify antibodies having high binding affinity to LILRB2. Briefly, an ELISA plate was coated with 0.1 ug/well recombinant human LILRB2 protein. Serial diluted maturated h#2E1 antibodies were incubated in the LILRB2 coated plate for 2 hrs. The plate was washed and a secondary HRP-labeled anti-human IgG was then added to each well. After being incubated at room temperature for 1 hour, the colorimetric ELISA signals were developed by adding the TMB substrate and reaction was stopped by 1M H3PO4. Table 7 below provides binding activities of exemplary matured antibodies to recombinant LILRB2 protein.

[5] = biological target: T1, human LILRB2 expressed on cells …; assay: flow cytometry, His-HLA-A2 tetramer (competitor) bound to 293T-LILRB2 cells, relative to no antibody; parameters: concentration or dose not given beside the values
Procedure: Serial diluted h#2E1 antibodies were then added to the mixture and incubated at room temperature for another 45 minutes. […]

T1 sequence (Q8N423 22-597): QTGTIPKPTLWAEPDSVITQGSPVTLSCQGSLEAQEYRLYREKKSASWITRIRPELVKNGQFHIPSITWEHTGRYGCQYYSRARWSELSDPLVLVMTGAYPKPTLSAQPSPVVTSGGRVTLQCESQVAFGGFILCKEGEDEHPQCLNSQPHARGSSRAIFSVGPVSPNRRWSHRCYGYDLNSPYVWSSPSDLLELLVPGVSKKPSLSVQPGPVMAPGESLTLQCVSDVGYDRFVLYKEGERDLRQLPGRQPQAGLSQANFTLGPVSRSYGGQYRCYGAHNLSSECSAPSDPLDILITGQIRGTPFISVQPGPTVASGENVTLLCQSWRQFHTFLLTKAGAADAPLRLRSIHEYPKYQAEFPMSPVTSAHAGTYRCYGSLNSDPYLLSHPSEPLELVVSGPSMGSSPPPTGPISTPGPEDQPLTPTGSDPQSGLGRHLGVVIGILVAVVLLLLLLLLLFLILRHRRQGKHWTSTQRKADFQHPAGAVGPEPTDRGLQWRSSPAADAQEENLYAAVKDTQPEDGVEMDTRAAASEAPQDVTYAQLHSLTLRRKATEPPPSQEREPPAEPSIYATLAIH
T2 sequence (Q8N423 22-460 limits assumed): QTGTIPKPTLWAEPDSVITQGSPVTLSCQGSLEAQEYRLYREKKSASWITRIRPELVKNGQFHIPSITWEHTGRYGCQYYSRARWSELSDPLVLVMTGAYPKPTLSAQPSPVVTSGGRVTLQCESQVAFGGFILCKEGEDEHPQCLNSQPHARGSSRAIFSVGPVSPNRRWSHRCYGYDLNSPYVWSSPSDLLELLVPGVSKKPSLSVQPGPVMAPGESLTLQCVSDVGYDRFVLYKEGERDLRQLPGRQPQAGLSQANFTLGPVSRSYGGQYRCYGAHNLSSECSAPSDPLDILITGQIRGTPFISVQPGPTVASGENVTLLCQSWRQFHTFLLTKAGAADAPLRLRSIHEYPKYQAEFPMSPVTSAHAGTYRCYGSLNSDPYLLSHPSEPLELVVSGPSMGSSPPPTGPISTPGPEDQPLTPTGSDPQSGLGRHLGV
Sequence of LILRB2 antigen of the ELISA of Table 5 (format not specified) (Q8N423 22-460 limits assumed): as above

Binder	Kd [1] [nM]	IC50 [2] [nM]	Bmax [3]	Bmax [4]	% no Ab [5] [%]
B1	11.7				
B2		~0.833			
B3			431000	1.14	49
B4			434000	1.17	
B5			688000	1.56	
B6			697000	1.44	
B7			417000	1.26	53.6
B8			641000	1.14	
B9			743000	1.58	
B10			725000	1.61	
B11			739000	1.62	
B12			636000	1.48	
B13			659000	1.47	
B14			646000	1.51	
B15			688000	1.56	
B16			665000	1.65	
B17			690000		
B18			434000	1.4	55.4
